Numbered stars: 1 amine (or outer) side, 2 acyl side, 3 side chain; on linkers, the order of the positions; unused ones are H or OH. Bridge positions count the residues as written; N and C are the ends. Side chains are listed from the residue outwards. Ends that are not written are not given here. * marks the point of attachment. C20 diacid = O=C(O)CCCCCCCCCCCCCCCCCCC(=O)*; γGlu = O=C(O)[C@H](CCC(=O)[*:2])N[*:1]

The labels stand for the following.
T1: human amylin receptor (human, UniProt P30988 25-474; O60896 24-148, limits assumed)
T1 construct: whole, on cells; Calcitonin receptor plus RAMP-3 gives the amylin 3(a) receptor; membranes of Amylin 3(a)/CRE-luc cells were used; also called hAmylin-R; hAmylinR
T1 sequence (looked up) 1: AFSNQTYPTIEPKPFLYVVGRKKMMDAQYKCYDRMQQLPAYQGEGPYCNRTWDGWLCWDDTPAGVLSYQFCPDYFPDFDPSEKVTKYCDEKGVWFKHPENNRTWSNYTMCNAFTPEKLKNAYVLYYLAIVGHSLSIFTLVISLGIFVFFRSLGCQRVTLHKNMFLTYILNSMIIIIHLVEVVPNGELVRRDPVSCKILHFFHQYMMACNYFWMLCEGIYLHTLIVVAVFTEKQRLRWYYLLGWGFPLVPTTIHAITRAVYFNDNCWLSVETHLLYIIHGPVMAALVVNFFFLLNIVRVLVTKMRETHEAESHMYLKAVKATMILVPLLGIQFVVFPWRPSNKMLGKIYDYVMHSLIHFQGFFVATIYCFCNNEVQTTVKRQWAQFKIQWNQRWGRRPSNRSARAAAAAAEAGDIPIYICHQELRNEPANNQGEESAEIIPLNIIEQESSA
T1 sequence (looked up) 2: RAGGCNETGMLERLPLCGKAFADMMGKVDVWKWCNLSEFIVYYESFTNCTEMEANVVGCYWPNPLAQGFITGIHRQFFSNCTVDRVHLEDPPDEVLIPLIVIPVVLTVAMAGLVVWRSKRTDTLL

B1: N^ε1-[(4S)-4-carboxy-4-(19-carboxynonadecanoylamino)butanoyl]-[Arg17,Pro21,Pro27,His34]-h-amylin (peptide)
peptide: K([γGlu-C20 diacid])CNTATCATQRLANFLRHSSPNFGAIPSSTNVGHNTY-NH2
modifications: disulfide 2-7; N-terminus assumed
SMILES: CC[C@H](C)[C@H](NC(=O)[C@H](C)NC(=O)CNC(=O)[C@H](Cc1ccccc1)NC(=O)[C@H](CC(N)=O)NC(=O)[C@@H]1CCCN1C(=O)[C@H](CO)NC(=O)[C@H](CO)NC(=O)[C@H](Cc1c[nH]cn1)NC(=O)[C@H](CCCNC(=N)N)NC(=O)[C@H](CC(C)C)NC(=O)[C@H](Cc1ccccc1)NC(=O)[C@H](CC(N)=O)NC(=O)[C@H](C)NC(=O)[C@H](CC(C)C)NC(=O)[C@H](CCCNC(=N)N)NC(=O)[C@H](CCC(N)=O)NC(=O)[C@@H](NC(=O)[C@H](C)NC(=O)[C@@H]1CSSC[C@H](NC(=O)[C@@H](N)CCCCNC(=O)CC[C@H](NC(=O)CCCCCCCCCCCCCCCCCCC(=O)O)C(=O)O)C(=O)N[C@@H](CC(N)=O)C(=O)N[C@@H]([C@@H](C)O)C(=O)N[C@@H](C)C(=O)N[C@@H]([C@@H](C)O)C(=O)N1)[C@@H](C)O)C(=O)N1CCC[C@H]1C(=O)N[C@@H](CO)C(=O)N[C@@H](CO)C(=O)N[C@H](C(=O)N[C@@H](CC(N)=O)C(=O)N[C@H](C(=O)NCC(=O)N[C@@H](Cc1c[nH]cn1)C(=O)N[C@@H](CC(N)=O)C(=O)N[C@H](C(=O)N[C@@H](Cc1ccc(O)cc1)C(N)=O)[C@@H](C)O)C(C)C)[C@@H](C)O
notes: also called 17R, 21P, 27P, 34H
B2: N^ε1-[(4S)-4-carboxy-4-(19-carboxynonadecanoylamino)butanoyl]-[Arg17,Pro21,Pro27,His35]-h-amylin (peptide)
peptide: K([γGlu-C20 diacid])CNTATCATQRLANFLRHSSPNFGAIPSSTNVGSHTY-NH2
modifications: disulfide 2-7; N-terminus assumed
SMILES: CC[C@H](C)[C@H](NC(=O)[C@H](C)NC(=O)CNC(=O)[C@H](Cc1ccccc1)NC(=O)[C@H](CC(N)=O)NC(=O)[C@@H]1CCCN1C(=O)[C@H](CO)NC(=O)[C@H](CO)NC(=O)[C@H](Cc1c[nH]cn1)NC(=O)[C@H](CCCNC(=N)N)NC(=O)[C@H](CC(C)C)NC(=O)[C@H](Cc1ccccc1)NC(=O)[C@H](CC(N)=O)NC(=O)[C@H](C)NC(=O)[C@H](CC(C)C)NC(=O)[C@H](CCCNC(=N)N)NC(=O)[C@H](CCC(N)=O)NC(=O)[C@@H](NC(=O)[C@H](C)NC(=O)[C@@H]1CSSC[C@H](NC(=O)[C@@H](N)CCCCNC(=O)CC[C@H](NC(=O)CCCCCCCCCCCCCCCCCCC(=O)O)C(=O)O)C(=O)N[C@@H](CC(N)=O)C(=O)N[C@@H]([C@@H](C)O)C(=O)N[C@@H](C)C(=O)N[C@@H]([C@@H](C)O)C(=O)N1)[C@@H](C)O)C(=O)N1CCC[C@H]1C(=O)N[C@@H](CO)C(=O)N[C@@H](CO)C(=O)N[C@H](C(=O)N[C@@H](CC(N)=O)C(=O)N[C@H](C(=O)NCC(=O)N[C@@H](CO)C(=O)N[C@@H](Cc1c[nH]cn1)C(=O)N[C@H](C(=O)N[C@@H](Cc1ccc(O)cc1)C(N)=O)[C@@H](C)O)C(C)C)[C@@H](C)O
notes: also called 17R, 21P, 27P, 35H
B3: N^ε1-[(4S)-4-carboxy-4-(19-carboxynonadecanoylamino)butanoyl]-[Asp14,Arg17,Pro21,Pro27,Pro34,Glu35]-h-amylin (peptide)
peptide: K([γGlu-C20 diacid])CNTATCATQRLADFLRHSSPNFGAIPSSTNVGPETY-NH2
modifications: disulfide 2-7; N-terminus assumed
SMILES: CC[C@H](C)[C@H](NC(=O)[C@H](C)NC(=O)CNC(=O)[C@H](Cc1ccccc1)NC(=O)[C@H](CC(N)=O)NC(=O)[C@@H]1CCCN1C(=O)[C@H](CO)NC(=O)[C@H](CO)NC(=O)[C@H](Cc1c[nH]cn1)NC(=O)[C@H](CCCNC(=N)N)NC(=O)[C@H](CC(C)C)NC(=O)[C@H](Cc1ccccc1)NC(=O)[C@H](CC(=O)O)NC(=O)[C@H](C)NC(=O)[C@H](CC(C)C)NC(=O)[C@H](CCCNC(=N)N)NC(=O)[C@H](CCC(N)=O)NC(=O)[C@@H](NC(=O)[C@H](C)NC(=O)[C@@H]1CSSC[C@H](NC(=O)[C@@H](N)CCCCNC(=O)CC[C@H](NC(=O)CCCCCCCCCCCCCCCCCCC(=O)O)C(=O)O)C(=O)N[C@@H](CC(N)=O)C(=O)N[C@@H]([C@@H](C)O)C(=O)N[C@@H](C)C(=O)N[C@@H]([C@@H](C)O)C(=O)N1)[C@@H](C)O)C(=O)N1CCC[C@H]1C(=O)N[C@@H](CO)C(=O)N[C@@H](CO)C(=O)N[C@H](C(=O)N[C@@H](CC(N)=O)C(=O)N[C@H](C(=O)NCC(=O)N1CCC[C@H]1C(=O)N[C@@H](CCC(=O)O)C(=O)N[C@H](C(=O)N[C@@H](Cc1ccc(O)cc1)C(N)=O)[C@@H](C)O)C(C)C)[C@@H](C)O
notes: also called 14D, 17R, 21P, 27P, 34P, 35E
B4: N^ε1-[(4S)-4-carboxy-4-(19-carboxynonadecanoylamino)butanoyl]-[Glu14,Arg17,Pro21,Pro27,His34,Glu35]-h-amylin (peptide)
peptide: K([γGlu-C20 diacid])CNTATCATQRLAEFLRHSSPNFGAIPSSTNVGHETY-NH2
modifications: disulfide 2-7; N-terminus assumed
SMILES: CC[C@H](C)[C@H](NC(=O)[C@H](C)NC(=O)CNC(=O)[C@H](Cc1ccccc1)NC(=O)[C@H](CC(N)=O)NC(=O)[C@@H]1CCCN1C(=O)[C@H](CO)NC(=O)[C@H](CO)NC(=O)[C@H](Cc1c[nH]cn1)NC(=O)[C@H](CCCNC(=N)N)NC(=O)[C@H](CC(C)C)NC(=O)[C@H](Cc1ccccc1)NC(=O)[C@H](CCC(=O)O)NC(=O)[C@H](C)NC(=O)[C@H](CC(C)C)NC(=O)[C@H](CCCNC(=N)N)NC(=O)[C@H](CCC(N)=O)NC(=O)[C@@H](NC(=O)[C@H](C)NC(=O)[C@@H]1CSSC[C@H](NC(=O)[C@@H](N)CCCCNC(=O)CC[C@H](NC(=O)CCCCCCCCCCCCCCCCCCC(=O)O)C(=O)O)C(=O)N[C@@H](CC(N)=O)C(=O)N[C@@H]([C@@H](C)O)C(=O)N[C@@H](C)C(=O)N[C@@H]([C@@H](C)O)C(=O)N1)[C@@H](C)O)C(=O)N1CCC[C@H]1C(=O)N[C@@H](CO)C(=O)N[C@@H](CO)C(=O)N[C@H](C(=O)N[C@@H](CC(N)=O)C(=O)N[C@H](C(=O)NCC(=O)N[C@@H](Cc1c[nH]cn1)C(=O)N[C@@H](CCC(=O)O)C(=O)N[C@H](C(=O)N[C@@H](Cc1ccc(O)cc1)C(N)=O)[C@@H](C)O)C(C)C)[C@@H](C)O
notes: also called 14E, 17R, 21P, 27P, 34H, 35E
B5: N^ε1-[(4S)-4-carboxy-4-(19-carboxynonadecanoylamino)butanoyl]-[Glu14,Arg17,Pro21,Pro27,Pro34,Arg35]-h-amylin (peptide)
peptide: K([γGlu-C20 diacid])CNTATCATQRLAEFLRHSSPNFGAIPSSTNVGPRTY-NH2
modifications: disulfide 2-7; N-terminus assumed
SMILES: CC[C@H](C)[C@H](NC(=O)[C@H](C)NC(=O)CNC(=O)[C@H](Cc1ccccc1)NC(=O)[C@H](CC(N)=O)NC(=O)[C@@H]1CCCN1C(=O)[C@H](CO)NC(=O)[C@H](CO)NC(=O)[C@H](Cc1c[nH]cn1)NC(=O)[C@H](CCCNC(=N)N)NC(=O)[C@H](CC(C)C)NC(=O)[C@H](Cc1ccccc1)NC(=O)[C@H](CCC(=O)O)NC(=O)[C@H](C)NC(=O)[C@H](CC(C)C)NC(=O)[C@H](CCCNC(=N)N)NC(=O)[C@H](CCC(N)=O)NC(=O)[C@@H](NC(=O)[C@H](C)NC(=O)[C@@H]1CSSC[C@H](NC(=O)[C@@H](N)CCCCNC(=O)CC[C@H](NC(=O)CCCCCCCCCCCCCCCCCCC(=O)O)C(=O)O)C(=O)N[C@@H](CC(N)=O)C(=O)N[C@@H]([C@@H](C)O)C(=O)N[C@@H](C)C(=O)N[C@@H]([C@@H](C)O)C(=O)N1)[C@@H](C)O)C(=O)N1CCC[C@H]1C(=O)N[C@@H](CO)C(=O)N[C@@H](CO)C(=O)N[C@H](C(=O)N[C@@H](CC(N)=O)C(=O)N[C@H](C(=O)NCC(=O)N1CCC[C@H]1C(=O)N[C@@H](CCCNC(=N)N)C(=O)N[C@H](C(=O)N[C@@H](Cc1ccc(O)cc1)C(N)=O)[C@@H](C)O)C(C)C)[C@@H](C)O
notes: also called 14E, 17R, 21P, 27P, 34P, 35R
B6: N^ε1-[(4S)-4-carboxy-4-(19-carboxynonadecanoylamino)butanoyl]-[Glu14,Arg17,Pro21,Pro27,Arg34,Glu35]-h-amylin (peptide)
peptide: K([γGlu-C20 diacid])CNTATCATQRLAEFLRHSSPNFGAIPSSTNVGRETY-NH2
modifications: disulfide 2-7; N-terminus assumed
SMILES: CC[C@H](C)[C@H](NC(=O)[C@H](C)NC(=O)CNC(=O)[C@H](Cc1ccccc1)NC(=O)[C@H](CC(N)=O)NC(=O)[C@@H]1CCCN1C(=O)[C@H](CO)NC(=O)[C@H](CO)NC(=O)[C@H](Cc1c[nH]cn1)NC(=O)[C@H](CCCNC(=N)N)NC(=O)[C@H](CC(C)C)NC(=O)[C@H](Cc1ccccc1)NC(=O)[C@H](CCC(=O)O)NC(=O)[C@H](C)NC(=O)[C@H](CC(C)C)NC(=O)[C@H](CCCNC(=N)N)NC(=O)[C@H](CCC(N)=O)NC(=O)[C@@H](NC(=O)[C@H](C)NC(=O)[C@@H]1CSSC[C@H](NC(=O)[C@@H](N)CCCCNC(=O)CC[C@H](NC(=O)CCCCCCCCCCCCCCCCCCC(=O)O)C(=O)O)C(=O)N[C@@H](CC(N)=O)C(=O)N[C@@H]([C@@H](C)O)C(=O)N[C@@H](C)C(=O)N[C@@H]([C@@H](C)O)C(=O)N1)[C@@H](C)O)C(=O)N1CCC[C@H]1C(=O)N[C@@H](CO)C(=O)N[C@@H](CO)C(=O)N[C@H](C(=O)N[C@@H](CC(N)=O)C(=O)N[C@H](C(=O)NCC(=O)N[C@@H](CCCNC(=N)N)C(=O)N[C@@H](CCC(=O)O)C(=O)N[C@H](C(=O)N[C@@H](Cc1ccc(O)cc1)C(N)=O)[C@@H](C)O)C(C)C)[C@@H](C)O
notes: also called 14E, 17R, 21P, 27P, 34R, 35E

The target in the experiment is T1, human amylin receptor. In words: SPA competition binding, displacement of 125I-rat amylin from membranes with human amylin 3(a) receptor (Assay V). An outline of the steps:
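SPA beads + BHK amylin 3(a)/CRE-luc membranes, 35 ng/μL final; buffer 50 mM Hepes pH 7.4, 1 mM CaCl2, 5 mM MgCl₂, 0.1% OA, 0.02% Tween20. 120 min, 25° C, shaken; scintillation count. IC₅₀ by one-site binding competition fit, taken as receptor affinity.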
Consider B1, for which the IC50 (as a rule, the concentration that gives 50% inhibition) stood at 0.428 nM.

The molecule B2 yielded an IC50 of 0.695 nM. Against the preceding molecule, the IC50 is about 1.6-fold higher.

For the molecule B3, the IC50 came out at 0.196 nM.

As to B4, the IC50 stood at 0.387 nM. This IC50 is about 2-fold higher than that of the molecule before.

In the case of B5, the IC50 is 0.163 nM.

With B6, the IC50 stood at 0.232 nM.
